The results in this text go back to patent publication US20260242504A1 (CHIOME BIOSCIENCE, published 2026).

In test [1] the target is T1, recombinant human 5T4 protein (5T4/His) (human, UniProt Q13641 32-355).
T1 construct: also called Human 5T4/His; recombinant 5T4; not shown: His tag of the bought protein
T1 sequence: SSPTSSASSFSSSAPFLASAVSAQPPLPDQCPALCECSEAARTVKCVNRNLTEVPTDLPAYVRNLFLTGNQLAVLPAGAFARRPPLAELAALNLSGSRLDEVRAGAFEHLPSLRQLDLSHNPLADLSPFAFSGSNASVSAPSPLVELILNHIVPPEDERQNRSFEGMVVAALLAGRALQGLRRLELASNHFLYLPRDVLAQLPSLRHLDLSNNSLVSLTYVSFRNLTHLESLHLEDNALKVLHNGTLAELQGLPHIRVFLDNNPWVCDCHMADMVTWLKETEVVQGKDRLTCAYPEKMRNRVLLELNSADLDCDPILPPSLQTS
Nature of the test: ELISA, immobilized recombinant human 5T4, 0-500 nM (N=2). Here is the method: The binding affinity of purified 53L10-M13 to 5T4 antigen was examined by ELISA (FIG. 14). A recombinant human 5T4 protein (ACRO Biosystems) was immobilized in a 96-well plate using the same method as that performed in FIG. 2 (Example 1). […] The curve showing the binding affinity of 53L10-M13 to 5T4 overlapped with the curve showing the binding affinity of 53L10 (●) to 5T4. The EC₅₀ values were 0.58 nM for 53L10-M13 and 0.53 nM for 53L10 (FIG. 14B).
On the technique in general: In an ELISA, binding on a coated surface is turned into a signal by an enzyme label.

The target in test [2] is T2, recombinant human PD-L1/Fc (human, UniProt Q9NZQ7 19-239, biotinylated in the competitive ELISA (sites not given)).
T2 construct: Bought from R&D Systems; also called recombinant PD-L1 protein; biotinylated PD-L1 ligand; not shown: Fc part of the bought fusion
T2 sequence (Q9NZQ7 19-239 limits assumed): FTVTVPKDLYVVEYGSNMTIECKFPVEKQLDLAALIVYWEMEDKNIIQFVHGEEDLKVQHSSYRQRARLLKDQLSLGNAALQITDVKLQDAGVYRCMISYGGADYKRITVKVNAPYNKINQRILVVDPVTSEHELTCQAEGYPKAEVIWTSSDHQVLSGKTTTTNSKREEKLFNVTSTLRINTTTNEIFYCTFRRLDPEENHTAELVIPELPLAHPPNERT
Nature of the test: ELISA, immobilized recombinant human PD-L1/Fc, 0-500 nM (N=2). On the procedure:
The binding affinity of purified 53L10-M13 to recombinant PD-L1 protein was examined by ELISA (FIG. 16). A recombinant human PD-L1/Fc protein (R&D Biosystems) was immobilized in a 96-well plate using the same method as that performed in Example 4. According to the procedure described in “Materials and Methods” later, the binding assay of 53L10-M13 and 53L10 to human PD-L1 protein was performed at increasing concentrations (0-500 nM). […] The curve showing the binding affinity of 53L10-M13 to PD-L1 overlapped with the curve showing the binding affinity of 53L10 (●) to PD-L1.

Test [3] addresses T3, 5T4 on 5T4-expressing CHO-K1 cells (UniProt Q13641 32-420).
T3 sequence (looked up): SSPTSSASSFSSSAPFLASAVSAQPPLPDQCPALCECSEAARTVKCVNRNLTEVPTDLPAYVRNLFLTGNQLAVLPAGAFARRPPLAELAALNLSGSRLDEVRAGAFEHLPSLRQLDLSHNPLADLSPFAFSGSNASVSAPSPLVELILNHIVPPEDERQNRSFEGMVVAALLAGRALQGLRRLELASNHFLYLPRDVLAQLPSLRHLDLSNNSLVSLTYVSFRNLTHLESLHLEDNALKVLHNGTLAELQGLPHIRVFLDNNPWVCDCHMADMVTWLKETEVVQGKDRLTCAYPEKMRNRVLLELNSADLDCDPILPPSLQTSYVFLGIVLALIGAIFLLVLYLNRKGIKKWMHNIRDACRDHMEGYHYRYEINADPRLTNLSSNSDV
Nature of the test: cell-based or functional assay.

The target in test [4] is T1, recombinant human 5T4 protein (5T4/His). Nature of the test: ELISA, immobilized recombinant human 5T4, tribody 0-500 nM. On the procedure:
A recombinant human 5T4 protein (AMSBio) was immobilized onto 96-well ELISA plates. The binding assay of Tb535H and purified novel tribodies was performed by testing at increasing concentrations (0-500 nM) were carried out according to the procedure described in Materials and Methods. […] The Tb535H has two 5T4 binding arms derived from Fab and scFv, and the novel 53X tribody constructed has a monovalent 5T4 binding arm derived from a single Fab.

Test [5] addresses T4, recombinant human PD-1/Fc (human, UniProt Q15116 25-167).
T4 construct: Bought from R&D Systems; also called recombinant PD-1 protein; immobilized PD-1 receptor; not shown: Fc part of the bought fusion
Nature of the test: ELISA, immobilized recombinant human PD-1 (per the legend of FIG. 4B; the sentence prints PD-L1). The source says: To verify whether the novel tribodies including a binding arm to PD-L1 or PD-1 have a satisfactory binding affinity for their target recombinant proteins, we perfomed ELISA assays on immobilized PD-1 or PD-L1 proteins (FIG. 4).

T4 sequence (Q15116 25-167 limits assumed): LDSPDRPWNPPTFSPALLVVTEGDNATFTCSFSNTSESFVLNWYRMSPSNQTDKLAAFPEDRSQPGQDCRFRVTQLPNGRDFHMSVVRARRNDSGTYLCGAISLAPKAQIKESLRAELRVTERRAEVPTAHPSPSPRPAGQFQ

B1: 53L10-M13 (other)
chain 1: QVQLVQSGAEVKKPGASVKVSCKASGYSFTSYYMHWVKQSPGQGLEWIGRINPNNGVTLYNQKFKDRVTMTRDTSISTAYMELSRLRSDDTAVYYCARSTMITNYVMDYWGQGTLVTVSSASTKGPSVFPLAPSSKSTSGGTAALGCLVKDYFPEPVTVSWNSGALTSGVHTFPAVLQSSGLYSLSSVVTVPSSSLGTQTYICNVNHKPSNTKVDKKVEPKSCDKTHTGPGGGSPGQVQLVQSGAELKKPGASVKVSCKASGYTFTRYTMHWVRQAPGQCLEWMGYINPSRGYTNYNQKFKDKATLTADKSTSTAYMELRSLRSDDTAVYYCARYYDDHYSLDYWGQGTLVTVSSASGGGGSGGGGSGGGGSAGDIQLTQSPSILSASVGDRVTITCRASSSVSYMNWYQQKPGKAPKRWIYDTSKVASGVPYRFSGSGSGTEYTLTISSMQPEDFATYYCQQWSSNPLTFGCGTKVEIKSG
chain 2: not shown
notes: also called 53L10 mutant; 53L0-M13
Consider B1, for which the figures for the concentration giving a half-maximal response (EC50) in test [1] and in test [2] were 0.58 nM and 36.9 nM, respectively. Also, the “EC50 of luciferase activity, T cell activation bioassay (NFAT) with CHO-5T4 target cells” value in test [3] came to 0.016 nM.

B2: 53P tribody (other)
chain 1: QVQLVQSGAEVKKPGASVKVSCKASGYSFTSYYMHWVKQSPGQGLEWIGRINPNNGVTLYNQKFKDRVTMTRDTSISTAYMELSRLRSDDTAVYYCARSTMITNYVMDYWGQGTLVTVSSASTKGPSVFPLAPSSKSTSGGTAALGCLVKDYFPEPVTVSWNSGALTSGVHTFPAVLQSSGLYSLSSVVTVPSSSLGTQTYICNVNHKPSNTKVDKKVEPKSCDKTHTGPGGGSPGQVQLVQSGAELKKPGASVKVSCKASGYTFTRYTMHWVRQAPGQCLEWMGYINPSRGYTNYNQKFKDKATLTADKSTSTAYMELRSLRSDDTAVYYCARYYDDHYSLDYWGQGTLVTVSSASGGGGSGGGGSGGGGSAGDIQLTQSPSILSASVGDRVTITCRASSSVSYMNWYQQKPGKAPKRWIYDTSKVASGVPYRFSGSGSGTEYTLTISSMQPEDFATYYCQQWSSNPLTFGCGTKVEIKSG
chain 2: not shown
notes: also called 5T4xCD3xisotype control
In the case of B2, in test [4], the binding result is listed as “binds”.

B3: 53G tribody (other)
chain 1: QVQLVQSGAEVKKPGASVKVSCKASGYSFTSYYMHWVKQSPGQGLEWIGRINPNNGVTLYNQKFKDRVTMTRDTSISTAYMELSRLRSDDTAVYYCARSTMITNYVMDYWGQGTLVTVSSASTKGPSVFPLAPSSKSTSGGTAALGCLVKDYFPEPVTVSWNSGALTSGVHTFPAVLQSSGLYSLSSVVTVPSSSLGTQTYICNVNHKPSNTKVDKKVEPKSCDKTHTGPGGGSPGQVQLVQSGAELKKPGASVKVSCKASGYTFTRYTMHWVRQAPGQCLEWMGYINPSRGYTNYNQKFKDKATLTADKSTSTAYMELRSLRSDDTAVYYCARYYDDHYSLDYWGQGTLVTVSSASGGGGSGGGGSGGGGSAGDIQLTQSPSILSASVGDRVTITCRASSSVSYMNWYQQKPGKAPKRWIYDTSKVASGVPYRFSGSGSGTEYTLTISSMQPEDFATYYCQQWSSNPLTFGCGTKVEIKSG
chain 2: not shown
notes: Trispecific tribody, a heterodimer; L chain derivative: VL(5T4)-CL-scFv(LAG3.1); also called 5T4xCD3xLAG3
Regarding B3, the binding result in test [4] is reported as “binds”.

B4: 53D tribody (other)
chain 1: QVQLVQSGAEVKKPGASVKVSCKASGYSFTSYYMHWVKQSPGQGLEWIGRINPNNGVTLYNQKFKDRVTMTRDTSISTAYMELSRLRSDDTAVYYCARSTMITNYVMDYWGQGTLVTVSSASTKGPSVFPLAPSSKSTSGGTAALGCLVKDYFPEPVTVSWNSGALTSGVHTFPAVLQSSGLYSLSSVVTVPSSSLGTQTYICNVNHKPSNTKVDKKVEPKSCDKTHTGPGGGSPGQVQLVQSGAELKKPGASVKVSCKASGYTFTRYTMHWVRQAPGQCLEWMGYINPSRGYTNYNQKFKDKATLTADKSTSTAYMELRSLRSDDTAVYYCARYYDDHYSLDYWGQGTLVTVSSASGGGGSGGGGSGGGGSAGDIQLTQSPSILSASVGDRVTITCRASSSVSYMNWYQQKPGKAPKRWIYDTSKVASGVPYRFSGSGSGTEYTLTISSMQPEDFATYYCQQWSSNPLTFGCGTKVEIKSG
chain 2: not shown
notes: Trispecific tribody, a heterodimer; H chain derivative: VH(5T4)-CH1-scFv(hOKT3); L chain derivative: VL(5T4)-CL-scFv(PD-1.1); also called 5T4xCD3xPD-1
Take B4: the binding result in test [4] and in test [5] was “binds” throughout.
